Laboratory results reported in article PMC2920317, “CHL1 Is a Selective Organizer of the Presynaptic Machinery Chaperoning the SNARE Complex” (PLoS ONE, 2010).
Blank lines part the entries; values can stand above or below the binder they belong to.

Molecular target: T1, Close homologue of L1 (CHL1) (mouse (endogenous in brain), UniProt P70232 26-1209)
T1 construct: CHL1, cell adhesion molecule of the immunoglobulin superfamily, endogenous in adult mouse brain; also called CALL; source: endogenous, mouse brain lysate; synaptosomes; synaptic vesicles and synaptic plasma membranes
T1 sequence (looked up): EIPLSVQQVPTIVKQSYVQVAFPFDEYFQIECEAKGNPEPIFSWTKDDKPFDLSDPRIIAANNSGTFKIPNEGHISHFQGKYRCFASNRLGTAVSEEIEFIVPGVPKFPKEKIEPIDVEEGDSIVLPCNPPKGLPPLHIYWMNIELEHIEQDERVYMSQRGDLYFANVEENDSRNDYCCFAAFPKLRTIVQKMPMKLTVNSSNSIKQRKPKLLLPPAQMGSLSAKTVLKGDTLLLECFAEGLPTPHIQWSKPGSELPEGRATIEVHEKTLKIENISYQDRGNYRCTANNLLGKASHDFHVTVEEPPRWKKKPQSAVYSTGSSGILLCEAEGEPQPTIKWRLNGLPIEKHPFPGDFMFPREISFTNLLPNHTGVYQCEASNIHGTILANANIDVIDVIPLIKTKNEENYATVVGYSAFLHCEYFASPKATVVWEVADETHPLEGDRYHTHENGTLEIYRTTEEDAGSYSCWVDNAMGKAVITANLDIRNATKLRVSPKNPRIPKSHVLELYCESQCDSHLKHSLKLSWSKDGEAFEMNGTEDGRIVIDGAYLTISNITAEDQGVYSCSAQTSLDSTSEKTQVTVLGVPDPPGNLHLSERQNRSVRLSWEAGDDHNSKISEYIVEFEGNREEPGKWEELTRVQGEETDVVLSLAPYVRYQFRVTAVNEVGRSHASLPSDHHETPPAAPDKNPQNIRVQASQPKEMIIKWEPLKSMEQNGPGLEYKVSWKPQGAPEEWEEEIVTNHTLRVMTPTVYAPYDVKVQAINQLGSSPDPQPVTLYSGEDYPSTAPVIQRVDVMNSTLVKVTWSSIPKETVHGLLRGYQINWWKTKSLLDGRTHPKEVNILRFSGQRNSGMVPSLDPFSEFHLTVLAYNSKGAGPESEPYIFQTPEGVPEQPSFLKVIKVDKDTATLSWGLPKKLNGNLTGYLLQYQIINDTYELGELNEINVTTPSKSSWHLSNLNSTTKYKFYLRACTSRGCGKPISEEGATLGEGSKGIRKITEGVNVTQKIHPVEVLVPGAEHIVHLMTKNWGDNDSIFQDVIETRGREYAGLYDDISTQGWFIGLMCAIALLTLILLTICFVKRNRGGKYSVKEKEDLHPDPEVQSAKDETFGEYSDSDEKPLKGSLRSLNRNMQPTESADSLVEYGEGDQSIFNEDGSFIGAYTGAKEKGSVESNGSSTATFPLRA
Experiment: co-IP; CHL1 immunoprecipitated from adult mouse brain lysates (50 mM Tris-HCl pH 7.5, 150 mM NaCl, 1% Nonidet P-40, 1 mM EDTA); protein A/G-agarose; Western blot; mock IP with non-specific Ig as control
Conditions: partners not purified

- percent of the total pool co-immunoprecipitated: 15 ± 3.1%
B1: syntaxin1B (natural protein, mouse (endogenous in brain), UniProt P61264 1-288, looked up)
chain: MKDRTQELRSAKDSDDEEEVVHVDRDHFMDEFFEQVEEIRGCIEKLSEDVEQVKKQHSAILAAPNPDEKTKQELEDLTADIKKTANKVRSKLKAIEQSIEQEEGLNRSSADLRIRKTQHSTLSRKFVEVMTEYNATQSKYRDRCKDRIQRQLEITGRTTTNEELEDMLESGKLAIFTDDIKMDSQMTKQALNEIETRHNEIIKLETSIRELHDMFVDMAMLVESQGEMIDRIEYNVEHSVDYVERAVSDTKKAVKYQSKARRKKIMIIICCVVLGVVLASSIGGTLGL
notes: syntaxin1B, SNARE complex protein, endogenous in adult mouse brain; also called synatxin1B; source: endogenous, mouse brain lysate and synaptosomes; immunoprecipitated from synaptosomes and held on beads

- percent of the total pool co-immunoprecipitated: 46 ± 8.5%
B2: small glutamine-rich tetratricopeptide repeat-containing protein, ubiquitous isoform (αSGT) (natural protein, mouse (endogenous in brain), UniProt Q8BJU0 1-315, looked up)
chain: MDNRKRLAYAIIQFLHGQLRHGGLSCDAQESLEVAIQCLETAFGVTLEDSDLALPQTLPEIFEAATSSKQEMPQDPRAPDRTPPSEEDSAEAERLKTEGNEQMKLENFEAAVHLYGKAIELNPANAVYFCNRAAAYSKLGNYVGAVQDCERAIGIDPGYSKAYGRMGLALSSLNKHAEAVAYYKKALELDPDNDTYKSNLKIAELKLREAPSPTGGVGSLDIAGLLNNPHFITMASSLMNSPQLQQLMSGMISGGHNPLGTPGSSPQQSDLASLIQAGQQFAQQMQQQNPEFVEQIRSQVVRSRTPSASHEEQQE
notes: αSGT, endogenous in adult mouse brain; also called alphaSGT; source: endogenous, mouse brain lysate; synaptic vesicles and synaptic plasma membranes
